# Measurements from patent publication US20230407373A1 (priority 2020, published 2023).
# B1: HNANPF (protein, UniProt P52597 1-415, looked up)
# Heterogeneous nuclear …: MMLGPEGGEGFVVKLRGLPWSCSVEDVQNFLSDCTIHDGAAGVHFIYTREGRQSGEAFVELGSEDDVKMALKKDRESMGHRYIEVFKSHRTEMDWVLKHSGPNSADSANDGFVRLRGLPFGCTKEEIVQFFSGLEIVPNGITLPVDPEGKITGEAFVQFASQELAEKALGKHKERIGHRYIEVFKSSQEEVRSYSDPPLKFMSVQRPGPYDRPGTARRYIGIVKQAGLERMRPGAYSTGYGGYEEYSGLSDGYGFTTDLFGRDLSYCLSGMYDHRYGDSEFTVQSTTGHCVHMRGLPYKATENDIYNFFSPLNPVRVHIEIGPDGRVTGEADVEFATHEEAVAAMSKDRANMQHRYIELFLNSTTGASNGAYSSQVMQGMGVSAAQATYSGLESQSVSGCYGAGYSGQNSMGGYD
# B2: DBX3X: host protein, UniProt O00571 (protein, UniProt O00571 2-662, looked up)
# ATP-dependent RNA helicase …: SHVAVENALGLDQQFAGLDLNSSDNQSGGSTASKGRYIPPHLRNREATKGFYDKDSSGWSSSKDKDAYSSFGSRSDSRGKSSFFSDRGSGSRGRFDDRGRSDYDGIGSRGDRSGFGKFERGGNSRWCDKSDEDDWSKPLPPSERLEQELFSGGNTGINFEKYDDIPVEATGNNCPPHIESFSDVEMGEIIMGNIELTRYTRPTPVQKHAIPIIKEKRDLMACAQTGSGKTAAFLLPILSQIYSDGPGEALRAMKENGRYGRRKQYPISLVLAPTRELAVQIYEEARKFSYRSRVRPCVVYGGADIGQQIRDLERGCHLLVATPGRLVDMMERGKIGLDFCKYLVLDEADRMLDMGFEPQIRRIVEQDTMPPKGVRHTMMFSATFPKEIQMLARDFLDEYIFLAVGRVGSTSENITQKVVWVEESDKRSFLLDLLNATGKDSLTLVFVETKKGADSLEDFLYHEGYACTSIHGDRSQRDREEALHQFRSGKSPILVATAVAARGLDISNVKHVINFDLPSDIEEYVHRIGRTGRVGNLGLATSFFNERNINITKDLLDLLVEAKQEVPSWLENMAYEHHYKGSSRGRSKSSRFSGGFGARDYRQSSGASSSSFSSSRASSSRSGGGGHGSSRGFGGGGYGGFYNSDGYGGNYNSQGVDWWGN
# Tests used:
# [1] = system: gRNA of HCoV-OC43; assay type: binding; settings: type n_48_v: 48 hours post-infection, no-probe control on infected cells
# [2] = system: HCoV-OC43 gRNA and sgRNA; assay type: binding; settings: type s_36_m, 36 hpi, Probe II
Molecule,"background (spectral count, no-probe control) [1]",target (spectral count) ([2]; HCoV-OC43-infected HCT-8 cells),background (spectral count) ([2]; uninfected-probe control)
B1,4,–,–
B2,–,7,1
